Laboratory results from article PMC10326071.

Assays:
[1] = target: middle domain of human Paip1 (Paip1M, residues 78-296) (human) (UniProt Q9H074); assay: BLI; […]; association 30 s, dissociation 80 s; 25 C; global fit, 1:1 model
[2] = target: middle domain of human poly(A)-binding protein-interacting protein 1 (Paip1M, residues 78-296) (human) (UniProt Q9H074); assay: BLI; […]; 1×PBS pH 7.4, 0.1% surfactant P20, 0.1% BSA, 500 mM NaCl; 25 °C; global fit, 1:1 model
SARS-CoV-2 SUD-core [3] = target: T1, SARS-CoV-2 SUD-core (SARS-CoV-2, UniProt P0DTD1 1231-1494); assay: BLI; conditions: protein: recombinant; tags: N-terminal 6xHis; G4
SARS-CoV SUD-core = SARS-CoV SUD-core (SARS-CoV, UniProt P0C6X7 1207-1470); assay: BLI; conditions: protein: recombinant; tags: N-terminal 6xHis; G4
SARS-CoV-2 SUD-core [4] = target: T1, SARS-CoV-2 SUD-core; assay: BLI; Fig. 2C titration; conditions: protein: recombinant; tags: N-terminal 6xHis; G4
SARS-CoV-2 SUD-core [5] = target: T1, SARS-CoV-2 SUD-core; assay: EMSA; no compound; conditions: protein: recombinant; tags: N-terminal 6xHis; label: none stated; SYBR-Gold stain; G4 (predicted)

middle domain of human Paip1 (Paip1M, residues 78-296) (human), sequence (Q9H074 157-375): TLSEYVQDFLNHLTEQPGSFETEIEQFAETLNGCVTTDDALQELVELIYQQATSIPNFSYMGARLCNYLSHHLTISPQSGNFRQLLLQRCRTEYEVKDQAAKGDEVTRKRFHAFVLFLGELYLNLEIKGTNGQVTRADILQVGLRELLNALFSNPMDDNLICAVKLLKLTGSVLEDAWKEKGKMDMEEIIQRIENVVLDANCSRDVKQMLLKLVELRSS
middle domain of human poly(A)-binding protein-interacting protein 1 (Paip1M, residues 78-296) (human), sequence (Q9H074 157-375): as above

Molecule: SARS-CoV SUD-core (nsp3 389-652) (domain or fragment)
- koff [1]: 0.0066 s⁻¹
- Kd [2]: 4400 nM

Molecule: SARS-CoV-2 SUD-core (nsp3 residues 413-676) (domain or fragment)
- koff [1]: 0.0055 s⁻¹

Molecule: CGGGAGGGCGGGGAGGGC (structured_RNA) [G4-TRF2 (BLI)]
- Kd (SARS-CoV-2 SUD-core [3]): 35.8 nM
- Kd (SARS-CoV SUD-core): 17 nM
- Kd (SARS-CoV-2 SUD-core [4]): 170 nM

Molecule: GGCUUAUAGGUUUAAUGGUAUUGG (structured_RNA) [G4-24268 (EMSA)]
- binding result (SARS-CoV-2 SUD-core [5]): binds
